Assay results reported in publication PMC8800115 (2021).

Target: K63-linked tetraubiquitin (UniProt P0CG48 1-76, G76 to K63 isopeptide bonds between adjacent ubiquitins)
Test: ITC

Kd: 2.1 µM
B1: ASCC2 CUE domain (construct of the ITC experiments of Figure 2) (domain or fragment)
chain: AAVGPAMCGVELDSLISQVKDLLPDLGEGFILACLEYYHYDPEQVINNILEERLAPTLSQLDRNLDREM
